According to PMC3627919, “Novel Split-Luciferase-Based Genetically Encoded Biosensors for Noninvasive Visualization of Rho GTPases” (PLoS ONE, 2013):

Target: T1, Nfluc416-WASP (human, UniProt P42768 220-288)
T1 sequence (looked up): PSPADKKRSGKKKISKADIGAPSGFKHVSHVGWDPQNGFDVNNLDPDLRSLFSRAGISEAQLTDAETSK
Assay: split reporter (BiFC, NanoBiT); bimolecular luminescence complementation (split firefly luciferase) in living HEK 293 cells, 24 h after transient cotransfection of the pair (50 ng/well) with pRL-tk; D-luciferin 150 ug/ml; IVIS CCD camera; ratio FL at 600 nm to RL at 500 nm; wild-type pairs also with co-expressed GEF or GAP catalytic domains
Conditions: partners not purified

B1: Cfluc398-CDC42(G12V) (natural protein)
chain: not shown
luminescence signal, fold of the active mutant over the wild type: 2.77 fold | reconstituted luminescence (FL/RL), fold over CDC42 F37A: 14.3 fold | reconstituted luminescence (FL/RL), fold over CDC42 T17N: 5.6 fold | reconstituted luminescence (FL/RL), fold over CDC42 WT: 2.7 fold
